{"source": "the nanobody polyreactivity screen of Harvey et al. (2022)"}
{"assay": "yeast display, Sf9 membrane polyspecificity reagent, FACS + sequencing; frameworks hold sequencing errors", "outline": "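In a synthetic yeast display library (Saccharomyces cerevisiae BJ5465), nanobody expression was induced with galactose for 36–48 hours. FACS gates were set low and high (top ~1%) using anti-HA fluorescence for expression and streptavidin fluorescence for binding of the Sf9 membrane reagent. Each polyreactivity label is drawn from the gate of origin.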"}
{"sequence": "QVQLVESGGGLVQAGGSLRLSCAASGYLIGGNAMGWYRQAPGKERELVAVISSRAGRTYYADSVKGRFTISRDNAKNTVYLQMNSLKPEDTAVYYCNRVFSYQYKRDYWGQGTQVTVSS", "polyreactivity (PSR sort gate)": "high polyreactivity"}
{"sequence": "QVQLVESGGGLVQAGGSLRLSCAASGYMGWYRQAPGKERELVATISGSGGSTYYADSVKGRFTISRDNAKNTVYLQMNSLKPEDTAVYYCTTEIWGVNRSGYDYWGQGTQVTVSS", "polyreactivity (PSR sort gate)": "low polyreactivity"}
{"sequence": "QVQLVESGGGLVQAGGSLRLSCAASGYNFDHYAMGWYRQAPGKERELVAAISRSAGSTYYADSVKGRFTISRDNAKNTVYLQMTSLKTEDTAVYYCNTVFRWIDRVLGYEYWGQGTQVTVSS", "polyreactivity (PSR sort gate)": "high polyreactivity"}
{"sequence": "QVQLVESGGGLVQAGGSLRLSCAASGYNFYGYAMGWYRLAPGKERELVAAITVRGGSTYYADSVKGRFTISRDNAKNTVYLQMNCQKPEETAVYYCAAAPQFTFGVGYWGQGTQVTVSS", "polyreactivity (PSR sort gate)": "low polyreactivity"}
{"sequence": "QVQLVESGGGLVQAGGSLRLSCAASGYSFSYYAMGWSRQAPGKERELVAAISWSGGSTYYADSVKGRFTISRDNAKNTVYLQMNRLKPEDTAVYYCATEVVAYRRYSAYGYWGQGTQVTVSS", "polyreactivity (PSR sort gate)": "high polyreactivity"}
{"sequence": "QVQLVESGGGLVQAGGSLRLSCAASGYTDYAMGWYRQAPGKERELVATITSGDNTNYADSVKGRFTISRDNAKNTVDLQMNSLKPEDTAVYYCAAEYGMHYGIDYWGQGTQVTVSS", "polyreactivity (PSR sort gate)": "low polyreactivity"}
{"sequence": "QVQLVESGGGLVQAGGSLRLSCAASGYTFAYYVMGWYRQAPGKERELVATIRSRAGRTYYADSVKERFTISRDNAKNTVYLQMNSLKPEDTAVYYCAAGWYYTYDYWGQGTQVTVSS", "polyreactivity (PSR sort gate)": "high polyreactivity"}
{"sequence": "QVQLVESGGGLVQAGGSLRLSCAASGYTFAYYVMGWYRQAPGKERELVATIRSRAGRTYYADSVKGRFTISRDNAKNTVYLQLNSLKPEDTAVYYCAAGWYYTYDYWGQGTQVTVSS", "polyreactivity (PSR sort gate)": "high polyreactivity"}
{"sequence": "QVQLVESGGGLVQAGGSLRLSCAASGYTFDKYAMGWYRPAPGKERELVAAITDGGSTNYADSVKGRFTISRDNAKNTVYLQMNSLKPEDTAVYYCNDELQWEVYYDRYPEYDHWGQGTQVTVSS", "polyreactivity (PSR sort gate)": "low polyreactivity"}
{"sequence": "QVQLVESGGGLVQAGGSLRLSCAASGYTFDKYVMGWYRQAPGKERELVAAISRSGGRTYYADSVKGRFTISRDNAKNTVYLQMNSLKPEDTAVYYCNALWFYNGLSYEYWGQGTQVTVSS", "polyreactivity (PSR sort gate)": "high polyreactivity"}
{"sequence": "QVQLVESGGGLVQAGGSLRLSCAASGYTFDQYAMGWYRQAPGKERELVAGIDSAGSTYYADSVKGRFTISRDNAKITVYLQMNSLKPEDTAVYYCNADDLNTEVPYYYWGQGTQVTGSS", "polyreactivity (PSR sort gate)": "low polyreactivity"}
{"sequence": "QVQLVESGGGLVQAGGSLRLSCAASGYTFDYYAMGWYRQAPGKERELVAAISGSGSRTYYADSVKGRFTISRDNAKNTVYFQMNSLKPEDTAVYYCAAEYYYSDAGNYWGQGTQVTVSS", "polyreactivity (PSR sort gate)": "high polyreactivity"}
{"sequence": "QVQLVESGGGLVQAGGSLRLSCAASGYTFEAYAMGWYRQAPGKERELVAAINYSGGSTYADSVKGRFTISRDNAKNTVYLQMNSLKPEDTAVYYCAAYGTKRYPYDYWGQGTQVTVSS", "polyreactivity (PSR sort gate)": "low polyreactivity"}
{"sequence": "QVQLVESGGGLVQAGGSLRLSCAASGYTFENYVKGWYSQAPGKERELVAAISSRGGSTYYADSVKGRFTISRDNAKNTVYLQMNSLKPEDTAVYYCAARARQTGPYRSRYNYWGQGTQVTVSS", "polyreactivity (PSR sort gate)": "high polyreactivity"}
{"sequence": "QVQLVESGGGLVQAGGSLRLSCAASGYTFFFNVMGWYRQAPGKERELVAAISYSGGSTNYADSVKGRFTISRDNAKNTVYLQMNSLKPEDTAVYYCNARTVSRNGYQDDYWGQGTQVTVSS", "polyreactivity (PSR sort gate)": "low polyreactivity"}
{"sequence": "QVQLVESGGGLVQAGGSLRLSCAASGYTFFLNAMGWYRPAPGNERELVAVITNVGSTYYADSVKGRFTISRDNAKNTVYLQMHSLKPEDTAVYYCAAEYLAYYSGYDYWGQGTQVTVSS", "polyreactivity (PSR sort gate)": "high polyreactivity"}
{"sequence": "QVQLVESGGGLVQAGGSLRLSCAASGYTFFYAMAWYRQAPGKERELVASITSAASTTYADSVKGRFSISRDNAKNTVYLQMNSLKPEDTAVYYCAASHSWWFYPGYYYWGQGTQVTVSS", "polyreactivity (PSR sort gate)": "high polyreactivity"}
{"sequence": "QVQLVESGGGLVQAGGSLRLSCAASGYTFGANVMGWYRQAPGKERELVAAINTRGSRTYYADSVNGRFTISRDNAKNTVYLQMNSLKPEDTAVYYCAAALRKEYDYWGQGTQVTVSS", "polyreactivity (PSR sort gate)": "high polyreactivity"}
{"sequence": "QVQLVESGGGLVQAGGSLRLSCAASGYTFGFYAMGWYRQAPGKERELVAAISRSGGRTYYADSVKGRFTISRDNAKNTVYLQMNSLKPEDTAVYYCAAYQYGMDYWGQGTQVTVSS", "polyreactivity (PSR sort gate)": "high polyreactivity"}
{"sequence": "QVQLVESGGGLVQAGGSLRLSCAASGYTFGFYGMGWYRQAPGKERDLVAAISRSGGGSTYYADSVKGRFTISRDNAKNTVYLQMNSLKPEDTAVYYCNRDFDDEMWGQGTQVTVSS", "polyreactivity (PSR sort gate)": "low polyreactivity"}
{"sequence": "QVQLVESGGGLVQAGGSLRLSCAASGYTFGQNAMGWYRQAPGKEREFVAAISWSGTSTYYADSVKGRFTISRDNAKNTVYLQMNSLKPEDTALYYCAARSYRYVSRREYWGQGTQVTVSS", "polyreactivity (PSR sort gate)": "high polyreactivity"}
{"sequence": "QVQLVESGGGLVQAGGSLRLSCAASGYTFGSNVMGWYRQAPGKERELVAAITFSGGSTYYADSVKRRFTISRDNAKNTVFLLMIRLKPEDTAVYYCAVRYVRYYAWYYYWGQGTQVTVSS", "polyreactivity (PSR sort gate)": "high polyreactivity"}
{"sequence": "QVQLVESGGGLVQAGGSLRLSCAASGYTFGWYAMGWYRQAPGTERELVAGISSAGSTNYADSVKGRFTISRDNAKNTVYLQMNSLKPEDTAVYYCARDKWGLRYAPTVDYWGQGTQLTVSS", "polyreactivity (PSR sort gate)": "high polyreactivity"}
{"sequence": "QVQLVESGGGLVQAGGSLRLSCAASGYTFGYNALGWYRQAPGKERELVAAISNGGSTNYADSVKGRFTISRDNAKNTVYLQMNSLKPEDTAVYYCAAASRLHIGYWRYDFWGQGTQVTVSS", "polyreactivity (PSR sort gate)": "low polyreactivity"}
{"sequence": "QVQLVESGGGLVQAGGSLRLSCAASGYTFHDYAMGWYRQAPGKERELVAAISKRGGSTYYADSVKGRFTISRDNAKNTVYLQMNSLKPEDTAVYYCAKGGPHRGTGLNDYWGQGTQVTVSS", "polyreactivity (PSR sort gate)": "high polyreactivity"}
{"sequence": "QVQLVESGGGLVQAGGSLRLSCAASGYTFHYNTMGGYRQAPGKERELVATISDGGSTNYADSVKGRFTISRDNAKNTVYLQMNSLKPEDTAVYYCAALYQQFQSALVPYFDVIEEDYWGQGTQVTVSS", "polyreactivity (PSR sort gate)": "low polyreactivity"}
{"sequence": "QVQLVESGGGLVQAGGSLRLSCAASGYTFIVNAIGWYRQAPGKERELVAGISYRGGRTFYADSVKGRFTISRDNAKNTVYLQMNSLKPEDTAVYYCAARKTGIPFYNYDYWGQGTQVTVSS", "polyreactivity (PSR sort gate)": "low polyreactivity"}
{"sequence": "QVQLVESGGGLVQAGGSLRLSCAASGYTFNNYAMGWYRQAPGKERELVAAISSSGGSTYYADSVKGRFTISRDNAKNTRYFQMNSLKPEDTAVYYGDGRPFGHGDYRGYYYWGQGTQVTVSS", "polyreactivity (PSR sort gate)": "low polyreactivity"}
{"sequence": "QVQLVESGGGLVQAGGSLRLSCAASGYTFNPYVMGWYSQAPGKERELVAAISSGGSTSYADSVKGRFTISRDNAKNTVYLQMNSLKPEDTAVYYCAADWSYYYSRNYESDYWGQGTQVTVSS", "polyreactivity (PSR sort gate)": "low polyreactivity"}
{"sequence": "QVQLVESGGGLVQAGGSLRLSCAASGYTFPLYAMGWYRQAPGKERELVADINIGGASTYYADSVKGRFTISRDNAKNTVYLQMYSLKPEDTAVYYCAKEYYDGYFPTFDYDYWGQGTQVTVSS", "polyreactivity (PSR sort gate)": "low polyreactivity"}
{"sequence": "QVQLVESGGGLVQAGGSLRLSCAASGYTFPLYAMGWYTQAPGKERELVADINIGGASTYYADSVKGRFTISRDNAKNTVYLQMNSLKPEDTAVYDCAKEYYDGYFPTFEYDYWGQGTQVTVSS", "polyreactivity (PSR sort gate)": "low polyreactivity"}
{"sequence": "QVQLVESGGGLVQAGGSLRLSCAASGYTFPSYALGWYRQAPGKERELVAVITIGGTYYADSVKGRFTISRDNAKNTVYLQMNSLKPEDTAVYYCAADWAWDYYRGFDYLGQGTQVTVSS", "polyreactivity (PSR sort gate)": "low polyreactivity"}
{"sequence": "QVQLVESGGGLVQAGGSLRLSCAASGYTFPYYTMGWYRQAPGKERELVAAISSGGRTKYADSVKGRFTISRDNAKNTVYLQMNSMKPEDTAVYYCNAVHSPAQCRSKYYPYNYWGQGTQVTVSS", "polyreactivity (PSR sort gate)": "high polyreactivity"}
{"sequence": "QVQLVESGGGLVQAGGSLRLSCAASGYTFQENAMGWYRQAPGKERELVAAISYGGGSTYYADSVKGRFTISRDNAKNTVYLQMNRLKPEDTAVYYCADDGGSAYAWYFAELYGYWGQGTQVTVSS", "polyreactivity (PSR sort gate)": "low polyreactivity"}
{"sequence": "QVQLVESGGGLVQAGGSLRLSCAASGYTFQHYGMGWYRQAPGKERELVAAITRRGSGTYYADSVKGRFTISRDNAKNTVYLQMNRLKPEDTAVYYCAAAVGHGVDYWGQGTQVTVSS", "polyreactivity (PSR sort gate)": "high polyreactivity"}
{"sequence": "QVQLVESGGGLVQAGGSLRLSCAASGYTFQTYAMGCYRQAPGKERELVAAITRSGTRTYYADSVKGRFTISRDNAKNTVYLQMYSLKPEDTAVYYCAAETYYSIYDYWGQGTQVTVSS", "polyreactivity (PSR sort gate)": "high polyreactivity"}
{"sequence": "QVQLVESGGGLVQAGGSLRLSCAASGYTFQWYDMGWYRQAPGKERELVASISWRGGSTYYADSVKGRFTISRDNAKNTVYLQMNSLKPEDTAVYYCAASLWPDYEYDYWGQGTQVTVSS", "polyreactivity (PSR sort gate)": "low polyreactivity"}
{"sequence": "QVQLVESGGGLVQAGGSLRLSCAASGYTFQYNDMGWYRQAPGKERELVAGISIGGSTNYADSVKGRFTISRDNAKNTVYLQMNSLKPEDTAVYYCAARTLWFPGTTSTSVGSKYGYWGQGTQVSVSS", "polyreactivity (PSR sort gate)": "low polyreactivity"}
{"sequence": "QVQLVESGGGLVQAGGSLRLSCAASGYTFRLYAMGWYRQAPGKERELVAAITSRGGTFYADSVKGRFTLSRDNAKNTVYLQMNSLKPEDTAVYYCAVAPNYPDFRRAIYLYDYWGQGTQLTVSS", "polyreactivity (PSR sort gate)": "low polyreactivity"}
{"sequence": "QVQLVESGGGLVQAGGSLRLSCAASGYTFRRYAMGWYRQAPGKERELVAAINYSGGSTYYADSVKGRFTISRDNSKNTVYLQMNSLKPEDTAVYYCAARVPSPYVATYYYWGQGTQVTVSS", "polyreactivity (PSR sort gate)": "high polyreactivity"}
{"sequence": "QVQLVESGGGLVQAGGSLRLSCAASGYTFRSYAMGWYRQAPGKEREFVASISSSGGSTYYADSVKGRFTISRDNAKNTVYLQMNSLKPEDTAVYYCAASVGSYPYDEYDYWGQGTQVTVSS", "polyreactivity (PSR sort gate)": "low polyreactivity"}
{"sequence": "QVQLVESGGGLVQAGGSLRLSCAASGYTFRTNVMGWYRQAPGKERELVAAISSDGSTNYADSVKGRFTISRDNAKNTVYLQMNSLKPEDTAVYYCAAPWTQILDYWGQGTQVTVSS", "polyreactivity (PSR sort gate)": "low polyreactivity"}
{"sequence": "QVQLVESGGGLVQAGGSLRLSCAASGYTFRWYVMGWYRQAPGKERELVAAISQSGGDTYYADSVKGRFTISRDNAKNTVYLQMNSLKPEDTAVYYCAVGRVGRFYYWGQGTQVTVSS", "polyreactivity (PSR sort gate)": "high polyreactivity"}
